Laboratory results as given in US20190038774A1.

Molecular target: MHCI antigen presented on MNs
Assay: cell-based or functional assay

killer cell immunoglobulin-like receptor 3DL2 (KIR3DL2) (from UniProt P43630 22-455)
MN death on co-culture with kir3dl2 shRNA treated ALS astrocytes, day 7: 50%
